According to US20100119506A1, “Effectors of PAR-2 Activation and Their Use in the Modulation of Inflammation” (BOEHRINGER INGELHEIM INTERNATIONAL GMBH, priority 2008, published 2010):
“Also recorded” adds a separate entry of the source.

How the values were obtained:
[1] = target: T1, FLAG-tagged PAR-2 (Homo sapiens, UniProt P55085); assay: FLAG-PAR-2 cell-based cleavage assay (flow cytometry); conditions: dHLX bivalent Fab; trypsin 30 nM, 5 minutes
T1 construct: expressed in transfected cells; host or cells: HEK
T1 sequence (P55085 26-397): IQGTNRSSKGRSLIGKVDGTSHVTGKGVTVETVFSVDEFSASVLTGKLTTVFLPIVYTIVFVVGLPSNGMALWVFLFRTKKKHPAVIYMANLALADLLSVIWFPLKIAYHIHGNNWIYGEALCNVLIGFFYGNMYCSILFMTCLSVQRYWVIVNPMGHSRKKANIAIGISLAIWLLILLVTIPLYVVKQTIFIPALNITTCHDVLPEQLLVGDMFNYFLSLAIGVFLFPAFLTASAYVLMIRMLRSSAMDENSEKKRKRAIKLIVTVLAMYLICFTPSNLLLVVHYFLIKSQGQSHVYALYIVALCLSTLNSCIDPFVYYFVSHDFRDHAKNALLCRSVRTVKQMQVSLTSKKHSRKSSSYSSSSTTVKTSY
Procedure: To assess the ability of antibody Ab3777 to block trypsin mediated cleavage of the PAR-2 N-terminus, antibodies were tested in a FRET assay that measures an increase in fluorescence upon cleavage of a labeled peptide representing the N-terminus of PAR-2. […] To assess the ability of antibodies to block trypsin mediated cleavage of the PAR-2 N-terminus on cells, HEK transfectants over-expressing FLAG-tagged PAR-2 were treated with trypsin in the presence or absence of Ab3777 dHLX bivalent Fabs. […]
Detection of the FLAG-tag on the cell surface correlates with inhibitory activity.

[2] = target: T2, PAR-2 (Homo sapiens, UniProt P55085); assay: Trypsin induced calcium response (FLIPR) in A549 cells; type: cell-based; design: expressing endogenous PAR-2; endogenous in cells; host or cells: A549; conditions: A549 cells
T2 sequence (P55085 26-397): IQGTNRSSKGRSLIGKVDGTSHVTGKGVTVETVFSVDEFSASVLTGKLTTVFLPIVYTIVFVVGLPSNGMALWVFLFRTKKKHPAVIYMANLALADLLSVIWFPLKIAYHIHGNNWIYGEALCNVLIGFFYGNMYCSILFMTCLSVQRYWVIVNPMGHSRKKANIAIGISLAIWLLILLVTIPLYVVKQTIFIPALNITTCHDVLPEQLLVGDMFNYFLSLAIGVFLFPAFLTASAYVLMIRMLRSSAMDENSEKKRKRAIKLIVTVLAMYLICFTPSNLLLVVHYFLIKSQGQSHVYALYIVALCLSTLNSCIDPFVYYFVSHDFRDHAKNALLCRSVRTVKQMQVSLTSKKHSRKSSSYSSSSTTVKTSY
Procedure: Using A549 cells, PAR-2 activation was measured by detecting the calcium response following trypsin stimulation. Fabs were tested in this assay for their ability to inhibit this response. […] Antibody concentrations are expressed as μg/ml (FIG. 6).
Thrombin activates PAR-1, whereas PAR-2 is activated by trypsin in A549 cells.

[3] = tested on: labeled peptide representing the N-terminus of PAR-2; assay: FRET-based PAR-2 peptide cleavage assay (trypsin); type: biochemical
Procedure: To assess the ability of antibody Ab3777 to block trypsin mediated cleavage of the PAR-2 N-terminus, antibodies were tested in a FRET assay that measures an increase in fluorescence upon cleavage of a labeled peptide representing the N-terminus of PAR-2. […] To assess the ability of antibodies to block trypsin mediated cleavage of the PAR-2 N-terminus on cells, HEK transfectants over-expressing FLAG-tagged PAR-2 were treated with trypsin in the presence or absence of Ab3777 dHLX bivalent Fabs. Activation of PAR-2 results in cleavage/internalization of the receptor resulting in a loss of the FLAG epitope as detected by an antibody in a flow cytometry assay (FIG. 3).
Affinity matured and cross-cloned antibodies in the IgG4_Pro format were evaluated for cell binding, inhibition of trypsin induced calcium responses in a FLIPR assay, inhibition of PAR-2 peptide cleavage in a FRET assay and inhibition of PAR-2 cleavage in a cell based assay system. All candidates show excellent apparent affinity (EC50) for PAR-2 transfected cells and maximal efficacy and potency in all short term cellular assays (Table 4).

[4] = target: PAR-2; assay: Affinity for PAR-2 in phage display selection and affinity maturation; type: binding; conditions: initial selection, Fab
Text: Antibody phage display techniques were employed to pan for antibodies (Fab fragments) capable of immunospecifically binding to residues spanning the protease cleavage site at the N-terminal of PAR-2. […] The sequences of the heavy (IgG4) and light (lambda) chain variable regions of the antibody Ab3777 are presented below (CDR residues are underlined): […]

B1: Ab3777: parental anti-PAR-2 antibody from phage display; light chain SEQ ID NO:6, heavy chain SEQ ID NO:7 (antibody, V domains shown)
VH: QVQLVESGGGLVQPGGSLRLSCAASGFTFSSYAMNWVRQAPGKGLEWVSTISYSSSATSYADSVKGRFTISRDNSKNTLYLQMNSLRAEDTAVYYCARIQNDPMDVWGQGTLVTVSS
VL: DIELTQPPSVSVAPGQTARISCSGDNLGKKYVQWYQQKPGQAPVLVIYDDSNRPSGIPERFSGSNSGNTATLTISGTQAEDEADYYCSSWDVGSDGWVFGGGTKLTVLGQ
modifications: Antibody identified via phage display
inhibition in cellular cleavage assay (in words) [1]: partial inhibition
activity in trypsin induced calcium response assay (in words) ([2]; IgG1 format): active but weaker
inhibition in trypsin induced calcium response assay (in words) ([2]; bivalent Fab format): partial dose-dependent inhibition
activity in trypsin induced calcium response assay (in words) ([2]; monovalent format): not active
inhibition of trypsin cleavage of PAR-2 peptide (in words) [3]: partial inhibition; also recorded: partially block this cleavage in a transient manner
Kd [4]: 65 nM
